Results from IntAct's records for PubMed 31515488.

B1: Myomegalin (Homo sapiens), Q5VU43-2 (parent)
chain: MKEICRICARELCGNQRRWIFHTASKLNLQVLLSHVLGKDVPRDGKAEFACSKCAFMLDRIYRFDTVIARIEALSIERLQKLLLEKDRLKFCIASMYRKNNDDSGAEIKAGNGTVDMSVLPDARYSALLQEDFAYSGFECWVENEDQIQEPHSCHGSEGPGNRPRRCRGCAALRVADSDYEAICKVPRKVARSISCGPSSRWSTSICTEEPALSEVGPPDLASTKVPPDGESMEEETPGSSVESLDASVQASPPQQKDEETERSAKELGKCDCCSDDQAPQHGCNHKLELALSMIKGLDYKPIQSPRGSRLPIPVKSSLPGAKPGPSMTDGVSSGFLNRSLKPLYKTPVSYPLELSDLQELWDDLCEDYLPLRVQPMTEELLKQQKLNSHETTITQQSVSDSHLAELQEKIQQTEATNKILQEKLNEMSYELKCAQESSQKQDGTIQNLKETLKSRERETEELYQVIEGQNDTMAKLREMLHQSQLGQLHSSEGTSPAQQQVALLDLQSALFCSQLEIQKLQRVVRQKERQLADAKQCVQFVEAAAHESEQQKEASWKHNQELRKALQQLQEELQNKSQQLRAWEAEKYNEIRTQEQNIQHLNHSLSHKEQLLQEFRELLQYRDNSDKTLEANEMLLEKLRQRIHDKAVALERAIDEKFSALEEKEKELRQLRLAVRERDHDLERLRDVLSSNEATMQSMESLLRAKGLEVEQLSTTCQNLQWLKEEMETKFSRWQKEQESIIQQLQTSLHDRNKEVEDLSATLLCKLGPGQSEIAEELCQRLQRKERMLQDLLSDRNKQVLEHEMEIQGLLQSVSTREQESQAAAEKLVQALMERNSELQALRQYLGGRDSLMSQAPISNQQAEVTPTGRLGKQTDQGSMQIPSRDDSTSLTAKEDVSIPRSTLGDLDTVAGLEKELSNAKEELELMAKKERESQMELSALQSMMAVQEEELQVQAADMESLTRNIQIKEDLIKDLQMQLVDPEDIPAMERLTQEVLLLREKVASVESQGQEISGNRRQQLLLMLEGLVDERSRLNEALQAERQLYSSLVKFHAHPESSERDRTLQVELEGAQVLRSRLEEVLGRSLERLNRLETLAAIGGAAAGDDTEDTSTEFTDSIEEEAAHHSHQQL
B2: TNF receptor-associated factor 1 (Homo sapiens), Q13077 (parent)
chain: MASSSGSSPRPAPDENEFPFGCPPTVCQDPKEPRALCCAGCLSENPRNGEDQICPKCRGEDLQSISPGSRLRTQEKAHPEVAEAGIGCPFAGVGCSFKGSPQSVQEHEVTSQTSHLNLLLGFMKQWKARLGCGLESGPMALEQNLSDLQLQAAVEVAGDLEVDCYRAPCSESQEELALQHFMKEKLLAELEGKLRVFENIVAVLNKEVEASHLALATSIHQSQLDRERILSLEQRVVELQQTLAQKDQALGKLEQSLRLMEEASFDGTFLWKITNVTRRCHESACGRTVSLFSPAFYTAKYGYKLCLRLYLNGDGTGKRTHLSLFIVIMRGEYDALLPWPFRNKVTFMLLDQNNREHAIDAFRPDLSSASFQRPQSETNVASGCPLFFPLSKLQSPKHAYVKDDTMFLKCIVETST
B3: U6 snRNA-associated Sm-like protein LSm7 (Homo sapiens), Q9UK45 (parent)
chain: MADKEKKKKESILDLSKYIDKTIRVKFQGGREASGILKGFDPLLNLVLDGTIEYMRDPDDQYKLTEDTRQLGLVVCRGTSVVLICPQDGMEAIPNPFIQQQDA
partner: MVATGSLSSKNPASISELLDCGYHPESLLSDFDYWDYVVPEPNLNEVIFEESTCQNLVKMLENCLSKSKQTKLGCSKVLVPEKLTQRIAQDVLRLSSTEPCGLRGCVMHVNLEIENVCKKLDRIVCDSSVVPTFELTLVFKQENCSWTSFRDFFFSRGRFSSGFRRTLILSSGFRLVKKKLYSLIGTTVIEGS

Variants of: B1
Settings: with prp31_human PRPF31, Q8WWY3
prp31_human PRPF31, Q8WWY3, sequence (Q8WWY3 whole entry): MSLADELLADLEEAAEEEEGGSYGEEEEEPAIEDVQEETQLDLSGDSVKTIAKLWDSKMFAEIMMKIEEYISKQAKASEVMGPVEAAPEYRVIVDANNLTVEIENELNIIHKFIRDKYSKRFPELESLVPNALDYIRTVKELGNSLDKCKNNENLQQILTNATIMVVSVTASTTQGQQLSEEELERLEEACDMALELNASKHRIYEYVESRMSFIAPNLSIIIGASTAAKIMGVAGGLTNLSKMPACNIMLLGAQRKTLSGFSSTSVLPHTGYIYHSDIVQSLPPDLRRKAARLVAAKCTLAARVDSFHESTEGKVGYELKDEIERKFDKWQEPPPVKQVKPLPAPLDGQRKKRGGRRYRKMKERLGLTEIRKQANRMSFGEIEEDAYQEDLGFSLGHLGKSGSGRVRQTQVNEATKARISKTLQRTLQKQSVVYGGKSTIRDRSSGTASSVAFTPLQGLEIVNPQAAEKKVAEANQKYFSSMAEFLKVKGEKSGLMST

| Variant | effect of a mutation on the interaction |
| --- | --- |
| N28S | with no effect |

Variants of: B1
Settings: with sdcb1_human SDCBP

| Variant | effect of a mutation on the interaction |
| --- | --- |
| N28S | with no effect |

Variants of: B1
Settings: with mare1_human MAPRE1, Q15691
mare1_human MAPRE1, Q15691, sequence (Q15691 whole entry): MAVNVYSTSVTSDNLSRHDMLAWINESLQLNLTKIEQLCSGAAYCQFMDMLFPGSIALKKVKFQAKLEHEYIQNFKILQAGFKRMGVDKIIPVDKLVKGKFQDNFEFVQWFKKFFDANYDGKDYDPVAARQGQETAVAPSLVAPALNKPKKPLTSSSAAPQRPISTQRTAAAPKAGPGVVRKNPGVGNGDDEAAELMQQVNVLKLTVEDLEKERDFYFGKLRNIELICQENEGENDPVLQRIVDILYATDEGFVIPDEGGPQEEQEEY

| Variant | effect of a mutation on the interaction |
| --- | --- |
| N28S | with no effect |

Variants of: B2
Settings: with traf2_human TRAF2, Q12933
traf2_human TRAF2, Q12933, sequence (Q12933 whole entry): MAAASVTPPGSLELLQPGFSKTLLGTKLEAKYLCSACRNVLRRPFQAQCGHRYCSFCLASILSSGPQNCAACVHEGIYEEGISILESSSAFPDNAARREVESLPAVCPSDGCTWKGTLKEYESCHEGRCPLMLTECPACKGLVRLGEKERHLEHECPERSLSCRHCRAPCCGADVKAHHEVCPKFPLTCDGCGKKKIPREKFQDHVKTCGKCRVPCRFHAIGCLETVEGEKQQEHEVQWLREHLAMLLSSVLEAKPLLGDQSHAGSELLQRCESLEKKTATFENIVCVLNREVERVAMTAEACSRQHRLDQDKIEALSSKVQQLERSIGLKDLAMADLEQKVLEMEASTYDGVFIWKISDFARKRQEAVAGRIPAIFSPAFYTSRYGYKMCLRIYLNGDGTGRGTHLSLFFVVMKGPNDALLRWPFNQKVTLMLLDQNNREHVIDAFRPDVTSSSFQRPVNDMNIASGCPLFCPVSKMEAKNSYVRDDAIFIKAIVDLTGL

| Variant | effect of a mutation on the interaction |
| --- | --- |
| V208M | with no effect |
| K193R | with no effect |
| R228C | with no effect |
| R228H | with no effect |
| R226C | with no effect |
| R226H | with no effect |

Variants of: B3
Settings: with ddt4l_human DDIT4L

| Variant | effect of a mutation on the interaction |
| --- | --- |
| G78A | with no effect |
